This passage reports Kd results from PMC2783222 (2010).

In general, Kd refers to the constant that tells how readily two partners part at equilibrium.

For one experiment, the target named is T1, ADAM11 (Homo sapiens, UniProt O75078).
T1 chain: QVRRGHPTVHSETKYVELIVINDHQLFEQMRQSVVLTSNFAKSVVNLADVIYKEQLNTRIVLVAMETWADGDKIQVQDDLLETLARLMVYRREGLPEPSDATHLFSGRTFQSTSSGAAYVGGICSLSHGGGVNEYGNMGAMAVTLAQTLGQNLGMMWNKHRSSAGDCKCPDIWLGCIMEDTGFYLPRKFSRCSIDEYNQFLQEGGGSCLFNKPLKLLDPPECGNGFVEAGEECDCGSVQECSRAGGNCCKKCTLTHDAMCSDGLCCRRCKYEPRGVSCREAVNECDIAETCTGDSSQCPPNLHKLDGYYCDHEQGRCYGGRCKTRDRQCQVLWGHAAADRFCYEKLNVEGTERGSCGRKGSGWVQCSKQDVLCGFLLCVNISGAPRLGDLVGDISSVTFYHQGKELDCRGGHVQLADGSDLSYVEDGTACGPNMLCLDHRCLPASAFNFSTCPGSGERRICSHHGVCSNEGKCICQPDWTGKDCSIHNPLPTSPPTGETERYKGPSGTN
In words: LGI1-AP fusion binding to transfected COS-7 cells.

The target of another experiment is T2, ADAM22 (Homo sapiens, UniProt Q9P0K1).
T2 chain: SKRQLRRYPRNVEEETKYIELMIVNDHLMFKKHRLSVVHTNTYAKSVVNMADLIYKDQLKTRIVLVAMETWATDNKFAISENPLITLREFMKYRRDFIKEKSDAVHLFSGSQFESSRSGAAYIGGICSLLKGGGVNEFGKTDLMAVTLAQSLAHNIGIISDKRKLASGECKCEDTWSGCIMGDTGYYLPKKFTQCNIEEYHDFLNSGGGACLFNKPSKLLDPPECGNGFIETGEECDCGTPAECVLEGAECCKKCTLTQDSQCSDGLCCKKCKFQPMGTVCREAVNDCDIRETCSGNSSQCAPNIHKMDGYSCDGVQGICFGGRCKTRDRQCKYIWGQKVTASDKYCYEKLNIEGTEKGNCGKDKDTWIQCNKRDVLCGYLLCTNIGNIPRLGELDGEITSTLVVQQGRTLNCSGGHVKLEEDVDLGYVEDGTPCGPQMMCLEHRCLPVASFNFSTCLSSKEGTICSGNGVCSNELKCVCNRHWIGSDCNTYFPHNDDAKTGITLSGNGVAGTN
In words: LGI1-AP fusion binding to transfected COS-7 cells.

Experiment [1] has as its target T3, ADAM23 (Homo sapiens, UniProt O75077).
T3 chain: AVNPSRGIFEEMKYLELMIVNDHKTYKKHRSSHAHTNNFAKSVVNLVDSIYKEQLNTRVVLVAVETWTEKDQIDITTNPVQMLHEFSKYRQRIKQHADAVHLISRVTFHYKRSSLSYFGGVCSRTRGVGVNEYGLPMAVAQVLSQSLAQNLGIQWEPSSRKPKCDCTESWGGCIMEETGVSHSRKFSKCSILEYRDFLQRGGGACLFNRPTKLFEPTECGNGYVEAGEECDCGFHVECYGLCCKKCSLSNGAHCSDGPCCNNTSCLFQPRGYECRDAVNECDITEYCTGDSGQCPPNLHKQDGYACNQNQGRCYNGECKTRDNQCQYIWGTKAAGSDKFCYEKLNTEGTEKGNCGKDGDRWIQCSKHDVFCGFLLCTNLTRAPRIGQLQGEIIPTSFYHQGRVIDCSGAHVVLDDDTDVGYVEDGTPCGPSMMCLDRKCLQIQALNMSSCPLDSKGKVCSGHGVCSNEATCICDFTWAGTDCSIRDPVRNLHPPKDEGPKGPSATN
In words: LGI1-AP fusion binding to transfected COS-7 cells.

In experiment [2] the target is T3, ADAM23. In words: LGI1-AP fusion binding to transfected COS-7 cells, Scatchard.

B1: LGI1 (protein)
chain: KKPAKPKCPAVCTCTKDNALCENARSIPRTVPPDVISLSFVRSGFTEISEGSFLFTPSLQLLLFTSNSFDVISDDAFIGLPHLEYLFIENNNIKSISRHTFRGLKSLIHLSLANNNLQTLPKDIFKGLDSLTNVDLRGNSFNCDCKLKWLVEWLGHTNATVEDIYCEGPPEYKKRKINSLSSKDFDCIITEFAKSQDLPYQSLSIDTFSYLNDEYVVIAQPFTGKCIFLEWDHVEKTFRNYDNITGTSTVVCKPIVIETQLYVIVAQLFGGSHIYKRDSFANKFIKIQDIEILKIRKPNDIETFKIENNWYFVVADSSKAGFTTIYKWNGNGFYSHQSLHAWYRDTDVEYLEIVRTPQTLRTPHLILSSSSQRPVIYQWNKATQLFTNQTDIPNMEDVYAVKHFSVKGDVYICLTRFIGDSKVMKWGGSSFQDIQRMPSRGSMVFQPLQINNYQYAILGSDYSFTQVYNWDAEKAKFVKFQELNVQAPRSFTHVSINKRNFLFASSFKGNTQIYKHVIVDLSA
Consider B1, for which the Kd with ADAM11 came out at 15 nM; with ADAM22, 15 nM; with ADAM23 [1], 15 nM; with ADAM23 [2], 10 nM.
